# Test results from the DeepSol protein solubility set.
# Assay: soluble on expression in E. coli; label from the status in PepcDB or PDB records
row,Sequence,soluble on expression in E. coli
1,MGSDKIHHHHHHMSIIMERQRGNQLLRIISEYMTNLKEKGQKLAKDNTMENLVNFTPRYNLIKSYLDDVERALDRSGLCYVKITFITLSKLLTGWSPIYFITEVPLAWDMILDTPYIAGSEIKGIVKNYFKEVTSNDKVESCLYGDEGKMGKVIFFNAYPIDGKNVLTYDIITPHYNGAKDEYNVKPIPIKFLAINKGITFKTYLAFDNKELNECGKDSLYLLLKTMIFSMRIGWGRKVTRGYGSLDIKEMDVKCHGE,not soluble
2,MGSDKIHHHHHHAEAPLRPDQAAFRDLYREMVETDTSITTGSCTLLADRIEARLRGAGFADGQIHRFAVPEFPKEGGIVAILPGTSAKARPILLLGHLDVVVAKREDWTRDPYRLIEEGGYFYGRGVADMKAMDAIWVDMLMRFRKEGRKPRRTIKLALTCGEETSTAFNGAKWLAENRRDLIDAEFALNEGGSGRTDKPLEEGGRVVLQTIHVGEKTPVNYRVEATNPGGHSSMPVRDNAIYELSDALVRLRDYEFPVMLNDTTRAFFAKAGAARGDAMGKAMVAVSADPADKAAVALLDTDRSFHSMLRTTCVATLLDGGHANNALPQRAGANVNCRIFPGVTAEEVRGTLETVVADPRMTVVRTDNRGPDAKAPPLDPKIVGPAEKLVAKYYPGVPMVPMMSTGATDGVFLGAVGIPSYGPPGLFGNPDGNGVHGLNERISVQAVYAGRDLLTELVTAYAF,not soluble
3,GMNQAMDTKQIAPFTLALPEGEALPLVCDSPHSGTFYPADFGAVVAPERLRGGEDTHVDALWEAVPRVGGTLLAATFPRVYIDPNRMLDDIDPAQLEGPWPTPLAPGEKTRLGYGLIWSNVDAATPIYDRKLTVAEVQRRINRYYRPYHAALTEAVEGAYQRFGAVWHLNLHSMPNNAYERLKIQSPRPLADFVLGDRDGTTCEPGLVDLVERELREKGYTVARNDPYKGVQLIAQIGRPAERRNSLQIEIRRPLYMEEGTRERNEGFATLQRDLTLLTLRIAEYVRRGV,soluble
4,MIVDSISSSTASTSSSSPTRGTPIRKSLQCAVCGDVALGKHYGVNACNGCKGFFRRSIWKNRTYACRHGGKCLVAKEQRNACRSCRLTRCLDVGMNPRAVQGDTVEDPEWDEEAMPETLSISTQTDALKVKKKSHTSLFTLDIKKEQIIDNLRAIYARTDPEEFWKLTYPGTYDFRYAFHNTKVVSPRTPLTPTAERIATLNDVVADFRRAFVLFVDILKSIDQLRDVQEDDKMKIAKSRFAAFYWWLCSTWSAKAGCNGVCYSNGSYHPASISDMPKSEGKHGVRIDYSGVSQKSLENLVEPLRRMELSDEERIVGAVMVILADPVPNVSTKTEKILAEARDFYLELLGYCIKLPEEQQGIRVSTMVLLLASIMELVHLTTDNIQLSDVLHVIDLGDWSQELRDHRYRRQF,not soluble
5,SPLEQRSQHCKPEEGLEARGEALGLVGAQAPATEEQEAASSSSTLVEVTLGEVPAAESPDPPQSPQGASSLPTTMNYPLWSQSYEDSSNQEEEGPSTFPDLESEFQAALSRKVAKLVHFLLLKYRAREPVTKAEMLGSVVGNWQYFFPVIFSKASDSLQLVFGIELMEVDPIGHVYIFATCLGLSYDGLLGDNQIMPKTGFLIIILAIIAKEGDCAPEEKIWEELSVLEVFEGREDSIFGDPKKLLTQYFVQENYLEYRQVPGSDPACYEFLWGPRALIETSYVKVLHHMVKISGGPRISYPLLHEWALREGEE,soluble
6,MRWAPVTYTVGSSSVGSFPAVQWRGINTPTQIVFSLSSSEVRSYRLRIFVPLAQVSARPQIAVNARWNGPVPAAPNQPKTRGITRGTTRGNNTLCEVDIPATALQAGSNRIAISLASGSPDNGFLSPAIVYDSVQLVAPLEHHHHHH,not soluble
7,MKVYLHFSPQFFANTYLIGNEITKEAVIIDPAKITEKMIHQIEKNEFNLKAVLLTHDLEHPYETGLNTILKIYSPKVYAGSCFSENVTINTLRGDGCIDVAGYSVRYFAIPAHSSYSYMFQIENMVFTGTSLSAGMIGQTSNMYAERTLRNILKTKLMCFEDNLIIMPFYGPPTSIGVERKYNASFFQDLEHHHHHH,not soluble
8,AHHHHHHGSSIKIELFGITFENPLILASGVVDMTPELLRRAHKEGAGGVVTKSIGIEPRKGYDNPTVVEVPCGLINAMGLPNPGWKAFLEEFEKESFDFPVIVSIFGGNPEEFAFLAEKLERVGDAFELNLSCPHAKGYGLEIGQDPENVYRVVKAVKDVTDKPVIAKLTPNTSDITKLGLAAEKAEADGVSAINTLKAIAIDIYAKRPILSNKFGGYSGPGIKPIALRAVYDLASKLDIPIIGIGGITTWQDAVEFLLAGASAVQIGTAVYLKGFSVFREIAEGIRKYLEEEGFSSVKEIIGLAQKV,soluble
9,AFELPPLPYAHDALQPHISKETLEFHHDKHHNTYVVNLNNLVPGTEFEGKTLEEIVKTSSGGIFNNAAQVWNHTFYWNCLSPNAGGQPTGALADAINAAFGSFDKFKEEFTKTSVGTFGSGWGWLVKKADGSLALASTIGAGCPLTIGDTPLLTCDVWEHAYYIDYRNLRPKYVEAFWNLVNWAFVAEQFEGKTYKV,soluble
10,MGSDKIHHHHHHMEFEVKKTFGKARLGVMKLHHGAVETPVFMPVGTNASVKLLTPRDLEEAGAEIILSNTFHLMLKPGVEIIKLHRGLHNFMGWKRPILTDSGGFQVFSLPKIRIDDEGVVFRSPIDGSKVFLNPEISMEVQIALGSDICMVFDHCPVPDADYEEVKEATERTYRWALRSKKAFKTENQALFGIVQGGIYPDLRRESALQLTSIGFDGYAIGGLSIGEERSLTLEMTEVTVEFLPEDKPRYFMGGGSPELILELVDRGVDMFDSVFPTRIARHGTALTWNGKLNLKASYNKRSLEPVDERCGCYTCKNFTRSYIHHLFDRGEVLGQILLTIHNINFMISLMKEVRRSIESGTFKELKSKVVEVYSSGGVNV,soluble
11,MGSDKIHHHHHHMSEAKMAESDGLRVLIDEPFYQPVANEVRVFLAAWDRRLPVMLKGPTGCGKTRFLEHMAWRLKRPLVTVACHEDLTSSDLIGRFLIEGNETVWQDGPLTRAVREGAICYLDEIVEARTDTTVVIHPLTDHRRHLPIEKLGIEITAHRDFMLVISYNPGYQTVLKDLKPSTKQRFVGMNFNYPPADVETCIVMKEAGVDEGRAKALVAAAGKARNLKEQGLQEVTSTRALIYAGALMVAGLDALEACVVAIIHPQTDDPELAEALLEIFRTFFPEQG,not soluble
12,MDRLKAMQVFVEVADRGSLSAAAMHLGMSRAMVSRYLAELEAWVGVRLLHRTTRRLSLTPAGSETLPRCRRMLEMVGDMREAVAAPDAEPRGLLRVTAAMSFGGAQLAEAVAEFVRRHPAASIDLLLVDRAVNLVEERVDLAVRITNDLDPNLIGRRLADCRSVVCAAPQYLQQHGAPARAEDLSLHNCLTHSYFGRSLWRFERAGEPVEVPVGGNITANETDVLMRAALAGAGIVMLPTYLAAGQIAAGTLRPLLPDCAPPVLGIHGVYVSRKQMPLILRTMLDFLAERFNPAPWDAALEGR,not soluble
13,MSFDGFFLHHIVEELRSELVNGRIQKINQPFEQELVLQIRSNRQSHRLLLSAHPVFGRIQLTQTTFENPAQPSTFIMVLRKYLQGALIESIEQVENDRIVEITVSNKNEIGDHIQATLIIEIMGKHSNILLVDKSSHKILEVIKHVGFSQNSYRTLLPGSTYIAPPSTKSLNPFTIKDEKLFEILQTQELTAKNLQSLFQGLGRDTANELERILVSEKLSAFRNFFNQETKPCLTETSFSPVPFANQVGEPFANLSDLLDTYYKDKAERDRVKQQASELIRRVENELQKNRHKLKKQEKELLATDNAEEFRQKGELLTTFLHQVPNDQDQVILDNYYTNQPIMIALDKALTPNQNAQRYFKRYQKLKEAVKYLTDLIEETKATILYLESVETVLNQAGLEEIAEIREELIQTGFIRRRQREKIQKRKKLEQYLASDGKTIIYVGRNNLQNEELTFKMARKEELWFHAKDIPGSHVVISGNLDPSDAVKTDAAELAAYFSQGRLSNLVQVDMIEVKKLNKPTGGKPGFVTYTGQKTLRVTPDSKKIASMKKS,not soluble
14,MGSDKIHHHHHHMVDLDLTQIQKDILYALITLYKKKSGGSVKGEEIAELINRNPGTVRNQMQALRALGLVEGVPGPKGGYRPTSKAYELLSVTRPEESVVVPVVVNGNVMEELSAEEIVLPSISNPNICQARIRIIGDIKKINPGDSVIVGPTPVNEMMVYGKVVGRDDTENTIVLDIEKIVALPKDTVGEHMSSPIISVDAEESVVNAAKVLAENGIYCTPVQKNGKFVGIFTLDHVAKAVAEGKLNAKVEEVMRPKLVMVEKDTKIGEALRLMRDEKVRILLVTDKGEPVGVITDQKILTRLAPEQVET,not soluble
15,DHPFTSAPTFGDFGSNQQAMPLYRVEPVYPSRALKRGVEGFVTLSFTIDTTGKAVDINVVDANPKRMFEREAMQALKKWKYQPQIVDGKAIEQPGQTVTVEFKIAK,soluble
16,MDERRTAEERRERMLPETMPVCPVRGSVIYPTMVMPIDAGRPISIRAIDEALARDRVLLIVSQRDKEVETPRPSDLFEVGTACNILKMRKNPDGSVQVLVQAFARVRVREWLDLGDHLEARGEVLADEPGEPILVKALVREVKDKFQALLKEGKYLAPEVAQFILNLEDPSQLADYVAFHMDFRLEDKQKVLETANVAERLRAVLVLLEAELALIETQRRIQQQVKEEIDRNQREYFLREQMKAIQRELHGEEGEQEVEEFRRKLEALDLPPVVRQEAERELNRFARMHPDSAEASVIRTYLDWIVNLPWNTRTEDNLDLERAKEILERDHYGLEKVKDRVLEYLAVRKLKAERAKRGEIPPDEVNKGPILLFVGPPGVGKTSIAKSIAEALGRKYVRVSLGGVRDESDIRGHRRTYIGAMPGRIIQGLRQAGTKNPVFLLDEVDKLGISYQGDPAAALLEVLDPAQNKEFVDHYLGVPFDLSEVMFICTANFPQNIPAPLYDRMEPIEFTSYTEQEKLEIAKRYLLPRQLKENGLEPEQVVVTEAALTRLITHYTREAGVRQLEREIGALLRKAARRILEEGKKRVRITEKDLEAYLGPPRFLPETEAREPQVGVATGMYYTPVGGDIMFVEVSVMPGKGNLILTGQLGDVMKESARAALSYAKKNALRFGIPLEKFDKSDIHIHVPAGAIPKEGPSAGVALVSALVSALTEVPVRHDIAMTGEITLTGRVLPIGGVKEKVLGARRAGIREVILPKLNEPDLSDIPKPLRQNMTFHFVEHLDQVLDLALVGGLKALEERGRRPRSARKKKELVAHA,soluble
17,MDPACASVDNSKSDPLTDSYPQKYRYSFHRNCQRIMLGVNLKRKNSHYTKGATMTATHNHYLAVLGEDFVAQQYANEGYDITARNVSFSVGEIDIIATSPQGEVVFIEVKTRSSSLMDAAEAVTPTKMRKIHRAASKWLQGKPFADIRFDVVAVHVDEYGELDMTRYQGVEHGAC,not soluble
18,MRSFDFAPLHRASIGFDQIADLMDRVMSSDVGQPSYPPYNIEKTAADAYRISIAVAGFAETDLSVEVKENALVISARKAADEAERTFLHRGIATRAFERRFTLADHVRVTGASHENGMLHIDLKREIPEALKPRRIEIASVKSADTPERIEAKAVN,not soluble
19,DSDLYAELRCLCIKTTSGIHPKNIQSLEVIGKGTHCNQVEVIATLKDGRKICLDPDAPRIKKIVQKKLAGDESAD,soluble
20,KTRPYMEEVLYVWKLKQLHNKIFRKLKSIKAAASNDDVKALTTLKFYYTTQRQVFELDNNTLTMSSVNKELEAIDQIEVDKSLHLDIASFEEGWIDTY,soluble
21,SLKDELHKLSYLDANRILEERLTETRYFSLNSNEYKNFQTSNPNFLFAAVIDGHAGGTIADVARKSLGYYLKKELIEIGVNSKRGGCRERAIVSALKKAHLNFDNDLLNQSKDYFLNGTSKYARTGACSLSVLIDERNYYISNIGDSVGLLIKKHFYLPLNRIHNASEFNEKRKLLEEHPNEEDILVCKICTRDYKTVNNNNTYELCKTPFHLLSHHYDNCYVKGRLQPTRSFGDFHLKKKMFAYSVDGTRLFVPEPHSFPYISAEPELRVMKKHPDDQFIVLMSDGVYEFLNHAQVINVIKTYGASPERAAKELINRVLEAAAYSSGMTMKQLLNLDPSIRRNFYDDVSVVVIKLN,not soluble
